Data from patent US9260505B2, “Methods for screening for binding partners of G-protein coupled receptors” (Heptares Therapeutics Limited, priority 2007, dated 2016).
Values joined by “and” are separate entries in the source; they are usually repeats but may differ in a detail not shown here. Identical values can stand only once.

Key:
β1AR36-M23 = target: T1, β1AR36-M23 (Meleagris gallopavo, UniProt P07700, A282L/C116L/C358A/DEL244-271/DEL277-278/F327A/F338M/M90V/R68S/Y227A); test: biochemical; type: binding, turkey; settings: for kd: 10° C., footnote 1 averaged from two b1AR surfaces, footnote 2 preliminary results
T1 construct: beta-36 construct (amino acid residues 34-367 of the turkey beta receptor containing the following changes); His6 (C); made in house; host or cells: insect cells, baculovirus (stated for the beta-36 construct in the crystallisation text)
T1 sequence (P07700 other isoform, or with tags, fused parts or gaps with the stated changes): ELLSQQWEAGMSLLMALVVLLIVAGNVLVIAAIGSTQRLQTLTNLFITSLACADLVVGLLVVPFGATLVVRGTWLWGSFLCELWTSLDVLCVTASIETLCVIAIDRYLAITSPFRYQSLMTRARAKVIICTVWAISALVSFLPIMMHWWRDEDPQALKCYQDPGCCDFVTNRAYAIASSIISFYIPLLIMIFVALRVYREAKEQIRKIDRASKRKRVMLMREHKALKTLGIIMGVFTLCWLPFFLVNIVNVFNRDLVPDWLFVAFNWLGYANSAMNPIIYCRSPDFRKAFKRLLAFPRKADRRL
Method: Binding studies were performed at 10° C. using a Biacore S51 optical biosensor equipped with a streptavidin-coated CM5 chip and equilibrated with running buffer (20 mM trisHCl, 150 mM NaCl, 1 mM EDTA, 1% DMSO, 0.1% decyl maltoside, pH 7.8).
Flow through of the compound allowed the on rate to be determined. Subsequent washing enabled determination of the off rate. These parameters could then be used to determine a kinetic affinity measurement (Kd).

[1] = Thermostability of neurotensin receptor and mutants (3H-neurotensin binding); type: physicochemical; settings: neurotensin bound
Method: • 1. 340 site-directed mutants have been made between residues 61-400 of NTR. • 2. Initially, all of these mutants were assayed for thermostability using an assay measuring ^3H-neurotensin (agonist) binding after the heating step. […] Mutants tested for thermostability by heating in the absence of the agonist were re-tested using a slightly different assay where the mutants were heated in the presence of ^3H-neurotensin (Ligand(+) format in FIG. 12). […] All of these also have increased thermostability. • 5. Preferred combinations are • a. Nag7m F358A+A86L+I260A+F342A Tm 51° C. (neurotensin bound) • b. Nag7n F358A+H103A+I260A+F342A Tm 51° C. (neurotensin bound)

[2] = Thermostability of detergent-solubilised βAR34-424 and mutants ([3H]-DHA binding after heating 30 min)
Method: Binding assays were performed using [^3H]-dihydroalprenolol (DHA) as radioligand as described under “Methods”. Samples were heated for 30 minutes at different temperatures before the assay. […] Data points are from duplicates of one single experiment.
Single point binding assays contained 20 mM Tris pH 8, 0.4 M NaCl, 1 mM EDTA, 0.1% DDM (or corresponding detergent) with 50 nM [^3H]-DHA and 20-100 μg membrane protein in a final volume of 120 μl; equilibration was for 1 h at 4° C. Thermostability was assessed by incubating the binding assay mix, with or without [^3H]-DHA at the specified temperature for 30 minutes; reactions were placed on ice and [^3H]-DHA added as necessary and equilibrated for a further hour. Receptor-bound and free radioligand were separated by gel filtration as described previously[18]. […] Radioactivity was counted on a Beckman LS6000 liquid scintillation counter and data were analyzed by nonlinear regression using Prism software (GraphPad).

[3] = Thermostability of solubilised adenosine A2a receptor and mutants; type: physicochemical; settings: for Tm + agonist / Tm + antagonist / Tm − agonist / Tm − antagonist: 1% DDM, no glycerol; for Tm + agonist: agonist-occupied; for Tm + antagonist: antagonist-occupied; for Tm − agonist / Tm − antagonist: apo-state; for Tm: ZM241385 bound
Method: • 1. 315 site-directed mutants made between residues 2-316 of A2aR. • 2. All of these mutants have been assayed for thermostability using an assay measuring agonist and antagonist binding after the heating step (Ligand(−) format as described in FIG. 12). • a. […] Mutations have been combined to generate mutants in a putative antagonist conformation. Wildtype A2aR has a Tm of 31° C. with ZM241385 bound.

[4] = apo-state heated 30 min, E. coli expressed, DDM-solubilised, mean ± S.E. from duplicates

Molecule: OCc1cc(C(O)CNCCCCCCOCCCCc2ccccc2)ccc1O (stereo not drawn) [Salmeterol]
- Kd (β1AR36-M23): 2500 ± 300 nM
- kd (β1AR36-M23): (9.5 ± 0.4) × 10^−2 s^−1
- binding strength compared with alprenolol or propranolol (β1AR36-M23; in words): bound the receptor much more weakly
- dissociation rate compared with the other compounds (β1AR36-M23; in words): dissociated much faster

Molecule: C=CCc1ccccc1OC[C@@H](O)CNC(C)C [alprenolol]
- Kd (β1AR36-M23): 44 ± 1 nM
- kd (β1AR36-M23): (6.3 ± 0.1) × 10^−3 s^−1

Molecule: Wildtype NTR: wild-type neurotensin receptor [reference compound]
- Tm [1]: 35 °C

Molecule: m6-4: βAR34-424 mutant R68S, Y227A, A234L, A282L
- Tm [2, 4]: 41.6 ± 0.1 °C

Molecule: m6-5: βAR34-424 mutant R68S, A234L, A282L, A334L
- Tm [2, 4]: 41.9 ± 0.5 °C

Molecule: m6-9: βAR34-424 mutant R68S, Y227A, A234L, A282L, A334L
- Tm [2, 4]: 43.7 ± 0.4 °C

Molecule: m6-10: βAR34-424 mutant R68S, Y227A, A282L, A334L
- Tm [2, 4]: 47.4 ± 1.1 °C

Molecule: m7-1: βAR34-424 mutant M90V, A282L, F338M
- Tm [2, 4]: 43.0 ± 0.8 °C

Molecule: m7-7: βAR34-424 mutant M90V, Y227A, F338M
- Tm [2, 4]: 45.2 ± 2.0 °C

Molecule: m10-4: βAR34-424 mutant R68S, M90V, V230A, A334L
- Tm [2, 4]: 46.9 ± 1.0 °C

Molecule: m20: βAR34-424 mutant R68S, M90V, F327A, A334L
- Tm [2, 4]: 48.4 ± 0.7 °C

Molecule: m23: βAR34-424 mutant R68S, M90V, Y227A, A282L, F327A, F338M
- Tm ([2]; Ni-NTA partially purified, in DDM): 52 °C
- Tm ([2]; Ni-NTA partially purified, in DM): 48 °C
- Tm ([2]; Ni-NTA partially purified, in LDAO): 23 °C
- Tm ([2]; Ni-NTA partially purified, in NG): 25 °C
- Tm ([2]; Ni-NTA partially purified, in OG): 17 °C
- Tm with antagonist bound ([2]; [3H]-DHA bound during heating): 55 °C
- increase in Tm with bound antagonist ([2]; antagonist bound versus without antagonist): 2 °C
- Tm [2, 4]: 52.8 °C and 52.8 ± 1.4 °C

Molecule: wt: wild-type human adenosine A2a receptor [reference compound]
- Tm, Agonist-binding ([3]; 0.003% LDAO): 28 °C
- Tm, Antagonist-binding ([3]; 0.003% LDAO): 32 °C
- Tm, Agonist-binding ([3]; 0.006% FC12): 37 °C
- Tm, Antagonist-binding ([3]; 0.006% FC12): 43 °C
- Tm, Agonist-binding ([3]; 0.01% DDM): 27 °C
- Tm, Antagonist-binding ([3]; 0.01% DDM): 25 °C
- Tm, Agonist-binding ([3]; 0.1% DM): 23 °C
- Tm, Antagonist-binding ([3]; 0.1% DM): 10 °C
- Tm, Agonist-binding ([3]; 0.3% NM): 22 °C
- Tm, Antagonist-binding ([3]; 0.3% NM): <4 °C
- Tm, Agonist-binding ([3]; 0.6% OG): <9 °C
- Tm + agonist [3]: 29 °C
- Tm + antagonist [3]: 32 °C
- Tm − agonist [3]: 21 °C
- Tm − antagonist [3]: 31 °C
- Tm [3]: 31 °C

B1: Nag7m: rat neurotensin receptor mutant F358A+A86L+I260A+F342A (protein, UniProt P20789 1-424, looked up, variant F358A A86L I260A F342A)
Neurotensin receptor type 1: MHLNSSVPQGTPGEPDAQPFSGPQSEMEATFLALSLSNGSGNTSESDTAGPNSDLDVNTDIYSKVLVTAIYLALFVVGTVGNSVTLFTLARKKSLQSLQSTVHYHLGSLALSDLLILLLAMPVELYNFIWVHHPWAFGDAGCRGYYFLRDACTYATALNVASLSVERYLAICHPFKAKTLMSRSRTKKFISAIWLASALLAIPMLFTMGLQNRSGDGTHPGGLVCTPIVDTATVKVVIQVNTFMSFLFPMLVISILNTVAANKLTVMVHQAAEQGRVCTVGTHNGLEHSTFNMTIEPGRVQALRHGVLVLRAVVIAFVVCWLPYHVRRLMFCYISDEQWTTALFDFYHYFYMLTNALAYVSSAINPILYNLVSANFRQVFLSTLACLCPGWRHRRKKRPTFSRKPNSMSSNHAFSTSATRETLY
- Tm [1]: 51 °C

B2: Nag7n: rat neurotensin receptor mutant F358A+H103A+I260A+F342A (protein, UniProt P20789 1-424, looked up, variant F358A H103A I260A F342A)
Neurotensin receptor type 1: MHLNSSVPQGTPGEPDAQPFSGPQSEMEATFLALSLSNGSGNTSESDTAGPNSDLDVNTDIYSKVLVTAIYLALFVVGTVGNSVTAFTLARKKSLQSLQSTVAYHLGSLALSDLLILLLAMPVELYNFIWVHHPWAFGDAGCRGYYFLRDACTYATALNVASLSVERYLAICHPFKAKTLMSRSRTKKFISAIWLASALLAIPMLFTMGLQNRSGDGTHPGGLVCTPIVDTATVKVVIQVNTFMSFLFPMLVISILNTVAANKLTVMVHQAAEQGRVCTVGTHNGLEHSTFNMTIEPGRVQALRHGVLVLRAVVIAFVVCWLPYHVRRLMFCYISDEQWTTALFDFYHYFYMLTNALAYVSSAINPILYNLVSANFRQVFLSTLACLCPGWRHRRKKRPTFSRKPNSMSSNHAFSTSATRETLY
- Tm [1]: 51 °C

B3: Rant17: A2aR mutant A54L + K122A + L235A (protein, UniProt P29274 1-412, looked up, variant A54L K122A L235A)
Adenosine receptor A2a: MPIMGSSVYITVELAIAVLAILGNVLVCWAVWLNSNLQNVTNYFVVSLAAADILVGVLAIPFAITISTGFCAACHGCLFIACFVLVLTQSSIFSLLAIAIDRYIAIRIPLRYNGLVTGTRAAGIIAICWVLSFAIGLTPMLGWNNCGQPKEGKNHSQGCGEGQVACLFEDVVPMNYMVYFNFFACVLVPLLLMLGVYLRIFLAARRQLKQMESQPLPGERARSTLQKEVHAAKSAAIIVGLFALCWLPLHIINCFTFFCPDCSHAPLWLMYLAIVLSHTNSVVNPFIYAYRIREFRQTFRKIIRSHVLRQQEPFKAAGTSARVLAAHGSDGEQVSLRLNGHPPGVWANGSAPHPERRPNGYALGLVSGGSAQESQGNTGLPDVELLSHELKGVCPEPPGLDDPLAQDGAGVS
- Tm [3]: Tm 48 °C (ZM241385 bound)

B4: Rant 5: A2aR mutant A54L/T88A/V239A (protein, UniProt P29274 1-412, looked up, variant A54L T88A V239A)
Adenosine receptor A2a: MPIMGSSVYITVELAIAVLAILGNVLVCWAVWLNSNLQNVTNYFVVSLAAADILVGVLAIPFAITISTGFCAACHGCLFIACFVLVLAQSSIFSLLAIAIDRYIAIRIPLRYNGLVTGTRAKGIIAICWVLSFAIGLTPMLGWNNCGQPKEGKNHSQGCGEGQVACLFEDVVPMNYMVYFNFFACVLVPLLLMLGVYLRIFLAARRQLKQMESQPLPGERARSTLQKEVHAAKSLAIIAGLFALCWLPLHIINCFTFFCPDCSHAPLWLMYLAIVLSHTNSVVNPFIYAYRIREFRQTFRKIIRSHVLRQQEPFKAAGTSARVLAAHGSDGEQVSLRLNGHPPGVWANGSAPHPERRPNGYALGLVSGGSAQESQGNTGLPDVELLSHELKGVCPEPPGLDDPLAQDGAGVS
- Tm + antagonist [3]: 46 °C
- Tm − antagonist [3]: 42 °C

B5: Rant19: A2aR mutant A54L, T88A, V239A + A204L (protein, UniProt P29274 1-412, looked up, variant A54L T88A V239A A204L)
Adenosine receptor A2a: MPIMGSSVYITVELAIAVLAILGNVLVCWAVWLNSNLQNVTNYFVVSLAAADILVGVLAIPFAITISTGFCAACHGCLFIACFVLVLAQSSIFSLLAIAIDRYIAIRIPLRYNGLVTGTRAKGIIAICWVLSFAIGLTPMLGWNNCGQPKEGKNHSQGCGEGQVACLFEDVVPMNYMVYFNFFACVLVPLLLMLGVYLRIFLALRRQLKQMESQPLPGERARSTLQKEVHAAKSLAIIAGLFALCWLPLHIINCFTFFCPDCSHAPLWLMYLAIVLSHTNSVVNPFIYAYRIREFRQTFRKIIRSHVLRQQEPFKAAGTSARVLAAHGSDGEQVSLRLNGHPPGVWANGSAPHPERRPNGYALGLVSGGSAQESQGNTGLPDVELLSHELKGVCPEPPGLDDPLAQDGAGVS
- Tm [3]: Tm 47 °C (ZM241385 bound)

B6: Rant21: A2aR mutant A54L, T88A, V239A + K122A (protein, UniProt P29274 1-412, looked up, variant A54L T88A V239A K122A)
Adenosine receptor A2a: MPIMGSSVYITVELAIAVLAILGNVLVCWAVWLNSNLQNVTNYFVVSLAAADILVGVLAIPFAITISTGFCAACHGCLFIACFVLVLAQSSIFSLLAIAIDRYIAIRIPLRYNGLVTGTRAAGIIAICWVLSFAIGLTPMLGWNNCGQPKEGKNHSQGCGEGQVACLFEDVVPMNYMVYFNFFACVLVPLLLMLGVYLRIFLAARRQLKQMESQPLPGERARSTLQKEVHAAKSLAIIAGLFALCWLPLHIINCFTFFCPDCSHAPLWLMYLAIVLSHTNSVVNPFIYAYRIREFRQTFRKIIRSHVLRQQEPFKAAGTSARVLAAHGSDGEQVSLRLNGHPPGVWANGSAPHPERRPNGYALGLVSGGSAQESQGNTGLPDVELLSHELKGVCPEPPGLDDPLAQDGAGVS
- Tm, Antagonist-binding ([3]; 0.003% LDAO): 42 °C
- Tm, Antagonist-binding ([3]; 0.006% FC12): 49 °C
- Tm, Antagonist-binding ([3]; 0.01% DDM): 39 °C
- Tm, Antagonist-binding ([3]; 0.1% DM): 28 °C
- Tm, Antagonist-binding ([3]; 0.3% NG): 22 °C
- Tm, Antagonist-binding ([3]; 0.3% NM): 25 °C
- Tm, Antagonist-binding ([3]; 0.6% OG): 23 °C
- Tm + antagonist [3]: 49 °C
- Tm − antagonist [3]: 41 °C
- Tm [3]: Tm 49 °C (ZM241385 bound)

B7: Rag 1: A2aR mutant A184L/R199A/L272A (protein, UniProt P29274 1-412, looked up, variant A184L R199A L272A)
Adenosine receptor A2a: MPIMGSSVYITVELAIAVLAILGNVLVCWAVWLNSNLQNVTNYFVVSLAAADIAVGVLAIPFAITISTGFCAACHGCLFIACFVLVLTQSSIFSLLAIAIDRYIAIRIPLRYNGLVTGTRAKGIIAICWVLSFAIGLTPMLGWNNCGQPKEGKNHSQGCGEGQVACLFEDVVPMNYMVYFNFFLCVLVPLLLMLGVYLAIFLAARRQLKQMESQPLPGERARSTLQKEVHAAKSLAIIVGLFALCWLPLHIINCFTFFCPDCSHAPLWLMYAAIVLSHTNSVVNPFIYAYRIREFRQTFRKIIRSHVLRQQEPFKAAGTSARVLAAHGSDGEQVSLRLNGHPPGVWANGSAPHPERRPNGYALGLVSGGSAQESQGNTGLPDVELLSHELKGVCPEPPGLDDPLAQDGAGVS
- Tm + agonist [3]: 34 °C
- Tm − agonist [3]: 26 °C
